# Assay results: patent US20110142884A1, “Materials and Methods for Making Improved Micelle Compositions” (The Board of Trustees of the University of Illinois, priority 2002, published 2011)
# Experiment: Circular dichroism (CD) spectral analysis of peptide conformation, % helicity
# Format: physicochemical
# Description: According to this example, circular dichroism (CD) experiments were performed to determine the conformation changes of VIP in phospholipid micelles, pH and temperature changes, and in aqueous solutions. CD spectra were recorded on a JASCO J-700 spectropolarimeter using a fused quartz cell of 1 cm pathlength. Spectra in 0.15 N saline (pH 6.8) and 5 mM Hepes buffer (pH 7.4) were measured at a peptide concentration of 4 μM and at a lipid concentration of 1 mM. The effects of CaM, pH (6.8 or 7.4) and temperature (25° C. or 37° C.) on VIP conformation were also studied. The conformation of VIP fragments was likewise studied. All measurements were carried out at room temperature (˜25° C.) unless otherwise noted. A bandwidth of 1.0 nm and a step resolution of 0.5 nm were used to collect an average of 9 accumulations/sample at the […] (200-260 nm wavelength). The peptide spectra shown have the background buffer scans, and empty vesicle scans subtracted and were smoothed using the noise reduction function. The temperature during spectral analysis was maintained by using a circulating water bath attached to a jacket surrounding the fused quartz CD cell. The percent helical characterization of VIP was determined by a method of Haghjoo et al., Peptide Research 9 (6):327-331 (1996): % helicity=[−(θ208+4000)/29 000]*100 and are reported in table 1.
# According to the example, CD was used to determine the conformation of VIP in saline, Hepes buffer and phospholipid micelles at room temperature and at 37° C. The CD spectra analysis was performed after 13 μg of human VIP incubated with 1 ml PEG-DSPE (1 μmol) micelles for 30 min at room temperature as determined by preliminary studies. A bandwidth of 1.0 nm and a step resolution of 0.5 nm were used to collect an average of 9 accumulations/sample at near UV range (200-260 nm). The temperature was maintained during spectral analysis by a circulating water bath attached to a jacket surrounding the fused quartz CD cell. The evaluation of VIP molecule conformation in SSM by using circular dichroism was successful because the distortion caused by spherical particles was eliminate due to the small size and univesicular structure of the SSM. […] The phospholipid micelles were ideal in our study of VIP conformation since it provided a hydrophobic core similar to the phospholipid bilayer of the SSL. Moreover, both the negative charge, and the hydrophilic layer provided by the PEG mimic the conditions of our SSL and make it possible to infer the VIP conformational results.
# According to this example, the method of example 4 was repeated to determine the conformation of VIP in saline and phospholipid micelles plus calmodulin (CaM). CD spectra measurements were performed after 13 μg/ml of VIP was incubated with 1.0 μmol/ml of phospholipid micelles for 30 min followed by 10^−10 M CaM incubated with VIP in phospholipid micelles for 2 h at 4° C. (conjugation paper). A bandwidth of 1.0 nm and a step resolution of 0.5 nm were used to collect the average of 9 accumulations/sample at near UV range (200-260 nm).
# According to this example the method of example 4 was repeated to determine the conformation of VIP fragments in saline and phospholipid micelles. CD spectra measurements were performed after incubation of VIP fragments with phospholipid micelles, at a molar concentration equivalent to VIP (i.e. 9 μg/ml for VIP10-28 fragment and 6 μg/ml for VIP1-12 fragment), for 30 min. A bandwidth of 1.0 nm and a step resolution of 0.5 nm were used to collect the average of 9 accumulations/sample at near UV range (200-260 nm). Specifically, CD spectra of human VIP fragment (1-12) and (10-28) in the presence of phospholipid micelles are shown in FIG. 5. […] These effects correlate well with the % helicity of VIP fragments determined in saline and in the presence of phospholipids (Table 1). […]
substance,measurement,setting,value
vasoactive intestinal peptide [VIP],Conformation from CD spectrum in the presence of phospholipid micelles (SSM),"phospholipid micelles (SSM), room temperature",predominantly α-helix conformation
same,% Helicity (in the presence of) Phospholipids,37° C.,67%
same,% Helicity (in the presence of) Phospholipids,room temperature,27%
same,% Helicity (in the presence of) Saline,"saline, 37° C.",2%
same,% Helicity (in the presence of) Saline,"saline, room temperature",5%
same,Conformation from CD spectrum in saline,"saline, room temperature",primarily a random coil structure
